B1: human MuRF1 polypeptide (muscle ring finger 1), full length (enzyme)
chain: MENLEKQLICPICLEMFTKPVVILPCQHNLCRKCANDIFQAANPYWTSRGSSVSMSGGRFRCPTCRHEVIMDRHGVYGLQRNLLVENIIDIYKQECSSRPLQKGSHPMCKEHEDEKINIYCLTCEVPTCSMCKVFGIHKACEVAPLQSVFQGQKTELNNCISMLVAGNDRVQTIITQLEDSRRVTKENSHQVKEELSQKFDTLYAILDEKKSELLQRITQEQEEKLSFIEALIQQYQEQLDKSTKLVETAIQSLDEPGGATFLLTAKQLIKSIVEASKGCQLGKTEQGFENMDFFTLDLEHIADALRAIDFGTDEEEEEFIEEEDQEEEESTEGKEEGHQ
notes: Full length bait in the yeast two-hybrid screens; also called TRIM63; RNF28
B2: FABP4 (NP_001433.1) (other, human, UniProt P15090 1-132, looked up)
chain: MCDAFVGTWKLVSSENFDDYMKEVGVGFATRKVAGMAKPNMIISVNGDVITIKSESTFKNTEISFILGQEFDEVTADDRKVKSTITLDGGVLVHVQKWDGKSTTIKRKREDDKLVVECVMKGVTSTRVYERA
B3: FHL2 (NP_963851.2) (other, human, UniProt Q14192 1-279, looked up)
chain: MTERFDCHHCNESLFGKKYILREESPYCVVCFETLFANTCEECGKPIGCDCKDLSYKDRHWHEACFHCSQCRNSLVDKPFAAKEDQLLCTDCYSNEYSSKCQECKKTIMPGTRKMEYKGSSWHETCFICHRCQQPIGTKSFIPKDNQNFCVPCYEKQHAMQCVQCKKPITTGGVTYREQPWHKECFVCTACRKQLSGQRFTARDDFAYCLNCFCDLYAKKCAGCTNPISGLGGTKYISFEERQWHNDCFNCKKCSLSLVGRGFLTERDDILCPDCGKDI

Assays:
ENO3 (NP_443739.2) = ENO3 (NP_443739.2) (human, UniProt P13929 1-434, limits assumed); assay: yeast two-hybrid
ENO3 (NP_443739.2), sequence (P13929 whole entry): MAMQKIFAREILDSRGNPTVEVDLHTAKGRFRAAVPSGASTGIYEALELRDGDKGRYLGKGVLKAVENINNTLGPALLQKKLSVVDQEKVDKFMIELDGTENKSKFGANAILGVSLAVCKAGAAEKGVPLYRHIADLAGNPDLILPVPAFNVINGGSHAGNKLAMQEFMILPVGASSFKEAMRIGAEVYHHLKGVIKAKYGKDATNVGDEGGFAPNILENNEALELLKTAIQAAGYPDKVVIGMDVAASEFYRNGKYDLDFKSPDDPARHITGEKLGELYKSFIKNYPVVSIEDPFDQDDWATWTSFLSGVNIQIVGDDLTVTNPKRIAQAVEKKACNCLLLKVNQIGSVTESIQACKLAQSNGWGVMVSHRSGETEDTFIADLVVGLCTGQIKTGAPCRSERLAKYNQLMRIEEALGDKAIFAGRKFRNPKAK

EEF1G (NP_001395.1) = target: T1, EEF1G (NP_001395.1) (human, UniProt P26641 1-437, limits assumed); assay: yeast two-hybrid, full length bait
T1 construct: also called translation initiation factor EEF1G
T1 sequence (P26641 whole entry): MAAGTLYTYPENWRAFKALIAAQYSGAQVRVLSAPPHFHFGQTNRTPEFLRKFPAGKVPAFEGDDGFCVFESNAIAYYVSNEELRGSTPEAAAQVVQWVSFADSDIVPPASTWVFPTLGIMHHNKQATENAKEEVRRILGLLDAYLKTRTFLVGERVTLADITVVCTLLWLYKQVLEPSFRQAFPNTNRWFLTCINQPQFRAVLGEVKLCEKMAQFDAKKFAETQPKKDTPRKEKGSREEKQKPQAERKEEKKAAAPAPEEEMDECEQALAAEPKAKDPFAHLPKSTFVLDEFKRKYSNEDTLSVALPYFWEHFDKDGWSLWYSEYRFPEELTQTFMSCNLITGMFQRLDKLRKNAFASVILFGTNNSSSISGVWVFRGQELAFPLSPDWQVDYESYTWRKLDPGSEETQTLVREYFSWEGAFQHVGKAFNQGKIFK

[1] = target: T2, sequestosome-1 (NP_003891.1) (human, UniProt Q13501 1-440, limits assumed); assay: yeast two-hybrid, full length bait
T2 construct: also called SQSTM1

[2] = target: B1; assay: yeast two-hybrid
[3] = target: B1; assay: yeast two-hybrid, full length bait

Binder: B1
binding result (ENO3 (NP_443739.2)): binds | binding result (EEF1G (NP_001395.1)): binds | binding result [1]: binds

Binder: B2
binding result [2]: binds

Binder: B3
binding result [3]: binds

Reference: patent publication EP2072528A1 (Labeit, a person, dated 2009)
